Experimental data as given in patent publication US20200399389A1 (PHANES THERAPEUTICS, published 2020).

T1: human CD73 expressed on the surface of cells (human, UniProt P21589 27-549)
T1 sequence: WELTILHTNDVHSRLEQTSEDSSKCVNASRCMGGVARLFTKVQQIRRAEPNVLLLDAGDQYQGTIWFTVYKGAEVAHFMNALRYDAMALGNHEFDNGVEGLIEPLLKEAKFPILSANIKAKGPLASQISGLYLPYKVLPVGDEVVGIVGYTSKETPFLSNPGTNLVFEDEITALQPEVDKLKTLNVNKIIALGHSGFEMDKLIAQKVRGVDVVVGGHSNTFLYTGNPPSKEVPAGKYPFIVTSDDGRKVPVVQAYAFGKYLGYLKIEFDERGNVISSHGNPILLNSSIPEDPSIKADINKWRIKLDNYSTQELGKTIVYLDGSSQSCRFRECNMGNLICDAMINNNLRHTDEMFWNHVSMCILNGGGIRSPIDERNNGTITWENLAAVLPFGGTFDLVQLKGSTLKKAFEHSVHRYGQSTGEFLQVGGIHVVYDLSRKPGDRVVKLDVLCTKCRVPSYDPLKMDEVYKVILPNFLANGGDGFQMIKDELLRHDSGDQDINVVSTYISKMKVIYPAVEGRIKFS

T2: HIS-tagged human CD73 (huCD73-HIS) (human, UniProt P21589 27-547)
T2 sequence: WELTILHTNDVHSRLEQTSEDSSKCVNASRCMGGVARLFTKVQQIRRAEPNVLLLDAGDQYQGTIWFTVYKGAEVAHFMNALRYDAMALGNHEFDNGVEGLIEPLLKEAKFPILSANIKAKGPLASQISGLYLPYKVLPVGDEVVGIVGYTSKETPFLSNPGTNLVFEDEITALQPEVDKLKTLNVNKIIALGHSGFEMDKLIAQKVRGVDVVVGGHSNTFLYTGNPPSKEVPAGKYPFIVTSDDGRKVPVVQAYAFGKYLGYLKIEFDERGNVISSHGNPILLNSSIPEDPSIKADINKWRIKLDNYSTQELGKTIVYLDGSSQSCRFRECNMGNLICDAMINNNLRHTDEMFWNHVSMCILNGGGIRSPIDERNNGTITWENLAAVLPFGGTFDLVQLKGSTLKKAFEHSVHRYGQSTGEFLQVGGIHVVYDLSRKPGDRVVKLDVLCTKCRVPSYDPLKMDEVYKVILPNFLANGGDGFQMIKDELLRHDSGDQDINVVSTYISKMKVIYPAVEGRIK


target: T1, human CD73 expressed on the surface of …; experiment: cell-based or functional assay

Binder | IC50 (nM), cell-based CD73 activity assay (A375 cells) [nM]
39G8-H1L3 (antibody, V domains shown) VH: QVQLVQSGAEVKKPGASVKVSCKASGYTFTSYWMHWVRQAPGQGLEWIGEIDPSGGYTNYAQKFQGRSTLTVDKSISTAYMELSRLRSDDTAVYYCARNYYYGSSGTMDYWGQGTLVTVSS VL: DIVMTQSPDSLAVSLGERATMSCKSSQSLLNSSNQKNYLAWYQQKPGQPPKLLVYFASTRESGVPDRFSGSGSGTDFTLTISSLQAEDVAVYFCQQHYSTPYTFGGGTKVEIK | 49.6
39G8-H2L3 (antibody, V domains shown) VH: QVQLVQSGAEVKKPGASVKVSCKASGYTFTSYWMHWVRQAPGQGLEWIGEIDPSGGYTNYAQKFQGRSTLTVDTSISTAYMELSRLRSDDTAVYYCARNYYYGSSGTMDYWGQGTLVTVSS VL: DIVMTQSPDSLAVSLGERATMSCKSSQSLLNSSNQKNYLAWYQQKPGQPPKLLVYFASTRESGVPDRFSGSGSGTDFTLTISSLQAEDVAVYFCQQHYSTPYTFGGGTKVEIK | 66.3
60A9-H5L4 (antibody, V domains shown) VH: EVQLVESGGGLVQPGQSLKLSCKASGYAFSSYWMNWVKQRPGKGLEWIGQIYPGDGDTYYSGKFKGRATLSADKSKNTAYLQLNNLRAEDTAVYYCAREAIYYGNYVFTYWGQGTLVTVSS VL: DIVMTQSPSLLSASLGDRVTISCKSSQSLLNSSNQKNYLAWYQQKPGQSPKLLVYFASTRDSGVPDRFSGSGSGTDFTLTISSLEPEDFATYFCQQHYSTPLTFGAGTKLEIK | 30.1

Results, then the binder that gave them:

IC50 (nM), cell-based CD73 activity assay (A375 cells) [nM] | Binder
56.1 | 39G8-H3L3 (antibody, V domains shown) VH: QVQLVQSGAEVKKPGASVKVSCKASGYTFTSYWMHWVRQAPGQGLEWIGEIDPSGGYTNYNQKFQGRSTLTVDKSISTAYMELSRLRSDDTAVYYCARNYYYGSSGTMDYWGQGTLVTVSS VL: DIVMTQSPDSLAVSLGERATMSCKSSQSLLNSSNQKNYLAWYQQKPGQPPKLLVYFASTRESGVPDRFSGSGSGTDFTLTISSLQAEDVAVYFCQQHYSTPYTFGGGTKVEIK
65.7 | 60A9-H3L3 (antibody, V domains shown) VH: EVQLVESGGGLVQPGQSLKLSCKASGYAFSSYWMNWVRQAPGKGLEWIGQIYPGDGDTYYNPSVKGRATLSADKSKNTAYLQLNNLRAEDTAVYYCAREAIYYGNYVFTYWGQGTLVTVSS VL: DIQMTQSPSLLSASLGDRVTITCKSSQSLLNSSNQKNYLAWYQQKPGQSPKLLVYFASTRDSGVPDRFSGSGSGTDFTLTISSLEPEDFATYYCQQHYSTPLTFGGGTKLEIK

target: T2, HIS-tagged human CD73 (huCD73-HIS); experiment: cell-based or functional assay

IC50 (nM), huCD73 enzymatic assay in solution [nM] | Binder
2.09 | 60A9-H3L3 (antibody, V domains shown) VH: EVQLVESGGGLVQPGQSLKLSCKASGYAFSSYWMNWVRQAPGKGLEWIGQIYPGDGDTYYNPSVKGRATLSADKSKNTAYLQLNNLRAEDTAVYYCAREAIYYGNYVFTYWGQGTLVTVSS VL: DIQMTQSPSLLSASLGDRVTITCKSSQSLLNSSNQKNYLAWYQQKPGQSPKLLVYFASTRDSGVPDRFSGSGSGTDFTLTISSLEPEDFATYYCQQHYSTPLTFGGGTKLEIK
